Patent publication US20240010723A1 (IBEX BIOSCIENCES, published 2024)
Each block holds one binder with its values, some of them ahead of it.

Key:
[1] = biological target: T1, Human CD147 (Uniprot P35613), recombinant protein (UniProt P35613 138-325); experiment: SPR
T1 chain: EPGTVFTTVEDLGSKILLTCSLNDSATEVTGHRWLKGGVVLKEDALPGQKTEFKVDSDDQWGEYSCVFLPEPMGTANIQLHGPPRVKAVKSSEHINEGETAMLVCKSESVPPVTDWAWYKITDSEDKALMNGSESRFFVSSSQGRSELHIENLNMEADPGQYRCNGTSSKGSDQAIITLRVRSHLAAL

[2] = biological target: T2, Human CD147 (Uniprot P35613), recombinant protein (human, UniProt P35613 138-325); experiment: SPR sensorgram, partly purified sample injected on a sensor chip; the chip's ligand is not stated
T2 construct: also called recombinant CD147; CD147 protein
T2 sequence: T1 chain
Procedure: Approximately 45 μl of Ibx-74 and Ibx-75 at various stages of purification were provided; 35 μl of each sample was injected on a sensor chip and sensograms were collected. The flow rate was 10 μ/minute, and the chip was regenerated with 10 mM Glycine at pH 1.5.

[3] = biological target: T1, Human CD147 (Uniprot P35613), …; experiment: SPR; kinetic model; Ibx-77 injected over immobilized CD147
[4] = biological target: T2, Human CD147 (Uniprot P35613), …; experiment: SPR, CD147 injected as analyte at 0-900 nM, steady state 1:1 fit
Procedure: (§1) For this assay, CD147 was injected in HBS-EP buffer pH7.4 at concentrations ranging from 0 nM to 900 nM at 10 μl/min for 600 Seconds. Duplicate CD147 injections were carried out for 0, 9.22, […], 23.04, 57.6, 144, 360, 900 nM (a 2.5-fold dilution series). The chip surface was regenerated using 10 mM Glycine pH 2.0 @ 10 μl/min for 180 sec.
(§2) One technical replicate of 0 nm & 23.04 nM was excluded from analysis due to sudden air spikes and DIPs during analyte injection. Data were analyzed in Q-Dat software provided by instrument manufacturer. A steady state 1:1 fitting model (FIG. 4) was used for initial steady state binding analysis, and a simple Kd/Ka kinetic model (FIG. 5) was used to estimate KD.

[5] = biological target: T3, Murine CD147 (Uniprot P18572), recombinant protein (murine (mouse), UniProt P18572 22-325, limits assumed); experiment: ELISA, 100 ng murine CD147 coated, anti-flag detection
T3 construct: also called mCD147; mouse CD147
T3 sequence: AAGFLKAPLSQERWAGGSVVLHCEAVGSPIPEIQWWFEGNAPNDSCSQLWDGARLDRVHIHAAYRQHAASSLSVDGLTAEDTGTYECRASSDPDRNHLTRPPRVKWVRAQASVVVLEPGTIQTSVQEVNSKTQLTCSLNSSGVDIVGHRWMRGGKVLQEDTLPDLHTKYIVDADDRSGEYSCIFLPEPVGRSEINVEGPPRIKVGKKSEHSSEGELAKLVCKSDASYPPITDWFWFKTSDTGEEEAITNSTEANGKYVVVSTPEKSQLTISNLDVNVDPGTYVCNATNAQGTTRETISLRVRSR
Procedure: For the ELISA, 100 ng of murine CD147 was coated onto Nunc polysorb plates overnight in 1× coating buffer. The wells were washed once with TBST (0.01% tween 20) and then blocked for 1 hour using 1× fishgel in TBST at room temperature (RT). Ibx-11, Ibx-13, Ibx-75, Ibx-76, Ibx-77, and anti-HIS antibody was incubated at 0.01-100 ng/well in 100 μl for 1 hour at RT before being washed 3× for 5 min each wash. The wells were incubated with anti-human for Ibx-11 & Ibx-13 treated wells and with anti-flag for Ibx-77, Ibx-75, Ibx-76 treated wells at 1:1000 dilution for 1 hour RT, and then washed 3× for 5 min each wash. The wells were incubated with 100p/Well of TMBE for 30 minutes and the reaction was stopped with 100p/Well of 2N sulphuric acid. Optical Density (OD) was measured using Biotek synergy 4 instrument for quantification.

[6] = biological target: T1, Human CD147 (Uniprot P35613), …; experiment: SPR; steady state 1:1 fit; Ibx-77 injected over immobilized CD147
[7] = biological target: T2, Human CD147 (Uniprot P35613), …; experiment: SPR, CD147 injected as analyte at 0-900 nM, kinetic model
Procedure: as §1, §2

Kd [1]: 0.0139 nM
koff [2]: 3e-05 s⁻¹
B1: Ibx-74 (dimer of Ibx-11) (VHH)
chain: QVRLEESGGGLVQAGGSLRLSCAASGLAFSIYGMGWFRQAPGKEREFVSVVDNTGSTTLYADSVKGRFTISRDNAKNTVYLQMSSLEPEDTAVYYCGAGPKNYLGSHEYAYWGQGTQVTVSSEPKIPQPQPKPQPQPQPQPQPKPQPEPQVRLEESGGGLVQAGGSLRLSCAASGLAFSIYGMGWFRQAPGKEREFVSVVDNTGSTTLYADSVKGRFTISRDNAKNTVYLQMSSLEPEDTAVYYCGAGPKNYLGSHEYAYWGQGTQVTVSS
notes: Tandem bivalent VhH

Kd [3]: 0.335 nM
Kd [4]: 138 nM
binding result [5]: no binding (tested: 0.01-100 ng/well)
Kd [6]: 10.8 nM
Kd [7]: 36.1 nM
koff [7]: 0.000489 s⁻¹
kon [7]: 13300 M⁻¹ s⁻¹
B2: Ibx-77 (dimer of Ibx-14) (VHH, not shown: small tags and cut ends)
chain: QVQLVESGGGLVQAGDSLTLSCAASGRSLSSNAMGWFRQAPGKEREFVSGTTWHAGTQYYAYAADSVKGRFTTSRDNANTVSLQMKRLKPEDTAVYYCAAAVSGPGYDSWGQGTQVTVSSEPKIPQPQPKPQPQPQPQPQPKPQPEPQVQLVESGGGLVQAGDSLTLSCAASGRSLSSNAMGWFRQAPGKEREFVSGTTWHAGTQYYAYAADSVKGRFTTSRDNANTVSLQMKRLKPEDTAVYYCAAAVSGPGYDSWGQGTQVTVSS
notes: Tandem bivalent VhH without Fc

binding result [5]: no binding (tested: 0.01-100 ng/well)
B3: Ibx-76 (dimer of Ibx-13) (VHH)
chain: QVQLVESGGGLVQPGGSLRLSCTASEDTFSTYAIGWFRQAPGQGREFVAGITANGIATRYNDSLKDRFTISRDNAKNTVYLQMNSLQPEDTAVYSCGADTRRFSLPSTVHEIDYWGQGTQVTVSSEPKIPQPQPKPQPQPQPQPQPKPQPEPQVQLVESGGGLVQPGGSLRLSCTASEDTFSTYAIGWFRQAPGQGREFVAGITANGIATRYNDSLKDRFTISRDNAKNTVYLQMNSLQPEDTAVYSCGADTRRFSLPSTVHEIDYWGQGTQVTVSS
notes: Tandem bivalent VhH without Fc; not shown: Flag tag, since detection was with anti-flag

Kd [1]: 0.000428 nM
koff [2]: 1e-06 s⁻¹
binding result [5]: no binding (tested: 0.01-100 ng/well)
B4: Ibx-75 (dimer of Ibx-12) (VHH)
chain: QVRLVESGGGLVQAGDSLRLSCQASGGTFTTYAMGWFRQAPGQEREFVSATTWSTGTSYYAYAADSVKGRFTTSRDNDNTVTLTMKRLKPDDTAVYYCSADPDGSDWAHSARQLRYWGQGTQVTVSSEPKIPQPQPKPQPQPQPQPQPKPQPEPQVRLVESGGGLVQAGDSLRLSCQASGGTFTTYAMGWFRQAPGQEREFVSATTWSTGTSYYAYAADSVKGRFTTSRDNDNTVTLTMKRLKPDDTAVYYCSADPDGSDWAHSARQLRYWGQGTQVTVSS
notes: Tandem bivalent VhH without Fc; also called tandem bivalent Ibx-75; not shown: Flag tag, since detection was with anti-flag
